Test results as given in patent US20240400640A1.

Target: FcRn (human) (UniProt P55899)
Assay: Lumit FcRn binding immunoassay (competition); pH 6.0

FcRn (human), sequence (P55899 24-297, chain 1 of 2): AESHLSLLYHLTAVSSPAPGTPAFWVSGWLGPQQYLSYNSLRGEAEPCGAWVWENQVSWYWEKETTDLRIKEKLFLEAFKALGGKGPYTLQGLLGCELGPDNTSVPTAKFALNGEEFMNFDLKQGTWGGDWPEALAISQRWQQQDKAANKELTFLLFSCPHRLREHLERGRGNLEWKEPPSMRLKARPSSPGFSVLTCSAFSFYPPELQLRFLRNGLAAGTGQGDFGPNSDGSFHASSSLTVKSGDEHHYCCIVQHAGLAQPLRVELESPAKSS
FcRn (human), sequence (main, as listed by the source, chain 2 of 2): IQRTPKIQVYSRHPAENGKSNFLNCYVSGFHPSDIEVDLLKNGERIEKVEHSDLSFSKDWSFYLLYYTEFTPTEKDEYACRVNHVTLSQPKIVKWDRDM

hIgG1
IC50: 12.8 nM
